# Experimental data published in the DeepSol protein solubility set.
# Test: soluble on expression in E. coli; label from the status in PepcDB or PDB records
row,Sequence,soluble on expression in E. coli
1,MGSDKIHHHHHHMQERLIRLLEAIAGAANPPNATDLAQLTGLPRATIYRNISSLVDCGFVEVTDCGSRYVLGMRFVKIALTGKSDMHVINAVSAMMQQVVKTSGETGFLARYRGGRVDLIHIETPADPSLSYIYPGLGPRPAHACSSAKAIAAFITPELRDELLDIQPMRFNQNTITDPDQIQRELNQVRRYGYAICDGEIDEGVSSVAVPINVDRLGAIFSMGVVGPSNRIKPMVQNRILPVLSAEAVRAAAAIQHCSVVDAETTNAEALADAREGLNKTH,not soluble
2,MGSDKIHHHHHHMQFEPALQQGRLVKRYKRFLADIKLADGSEMTIHCPNTGSMRNCLFPGEAVWFSTSANPKRKYAYTWELMGTPNGGFIGIHSGSANALAEEAIHSGIIKELTGYDTLSREVKYGDENSRIDILLQGAQKPDCYIEVKSCTLLEDGQGFFPDAVSLRGQKHLRELMHMANLGHRAVLLFVVQHSEIFSVAPAAHIDHEYANLLKKATLSGVEVLAYRCEMSPTEIRLAQACPVRV,not soluble
3,MGSDKIHHHHHHMQFTDAVTVAGTRRTADGYLVATARAVRTGIQLYAGHEVGKPDQEVVRVYRAADQVFSTESLQSFSHAPITVDHPDEEVSAENWKALSVGEVSTAAKQDGQWVMLPLILKDAAAIKSVMDGKRELSAGYTCDLDFTPGVTADGEPYDAQQRGIRINHLALVDRARAGSKARIGDDGGPWGAAPISTTDKETITMSDALRTVVVDGLSVTTTDQGAQAISKLLKDLESSAAKLVDAQTRYQAALAAKDADLAKAHAERDAANAKVLSDADLDKRVAARADLITKAKAIAKDVKTDGLSDSAIRKAAVTAALGDAAVRDKADAYIDARFDILVEDAAKKSGGADPFRQVVQNGLQTADNTNGAAAAHNAMVRDMSSAWMMKKEA,not soluble
4,MGSDKIHHHHHHMQGRTPLLETLRELECEIRLLTVYARECCGCYEILRRKLDRLSGLIGEDCSRAQWQADSDDPALQALGLRLRDAAVQALCELEKHLCQGVLHEPGEMGRYLGSLLESIRGELDSAGIYAYARVLFVGSGALPTSALVLAREVGAHLCCLDIDEEALGCAREIARCQGLEARMQFSSLPPAELAFSRDATHFLIASLVQQKSAVLAQIRQVMRADAKVLLRHGSGIKGLFNYPVEPAELDGWRVCAERVSQPLYDTLILEKAGR,not soluble
5,MGSDKIHHHHHHMQKLTRINDFNEVLNSRKSVKVFDENYKIPREEMDEIITKATKAPSSVNMQPWRIAVVQSDEMKEKVKESFGFNSRQLTTSSAMLIIFGDLQNYEKAEQIYGDAVEQQLMTEDIKAQLLDWILPYYKNLSREGMKDIVNIDSSLMAMQLMLTAKAHGYDTNPIGGFDKENIADIIGYDSDRYVPVLAIAIGKKAQDAHDSVRLPIDDVREFL,not soluble
6,MGSDKIHHHHHHMQLSKAAEMCYEITNSYLHIDQKSQIIASTQEAIRLTRKYLLSEIFVRWSPLNGEISFSYNGGKDCQVLLLLYLSCLWEYFFIKAQNSQFDFEFQSFPMQRLPTVFIDQEETFPTLENFVLETSERYCLSLYESQRQSGASVNMADAFRDFIKIYPETEAIVIGIRHTDPFGEALKPIQRTDSNWPDFMRLQPLLHWDLTNIWSFLLYSNEPICGLYGKGFTSIGGINNSLPNPHLRKDSNNPALHFEWEIIHAFGKDAEGERSSAINTSPISVVDKERFSKYHDNYYPGWYLVDDTLERAGRIKN,not soluble
7,MGSDKIHHHHHHMQPHPETTPVTSCTIIDATDRSIRQTLGETSTLARLIWVDAGLASPPLCSGLARCGRCRVRITEAAPAPHEDDREFFSAEDISAGWRLACRHAPAHGMVVHVPLPVMPHRHASRPKHPGPFRLAVDLGTTSLQWSLLAPDGTVAAQGSETNPQMGAGSDVMSRIAMARSDKGRGRLRELVLQALRRIVADVEGTPATADAVPPAGSGDEPTTACGYESRVEELCVAGNTAMTAILADESVEGLASAPYRLEMRGGTALALPGLPPAWIPPLPAPFVGGDLSAGYLAVLTDHAPAFPFVLADLGTNGEFVLALSPERTLVTSVALGPALEGIGLTFGTVAQRGAITSFTLTPGGLVPYVLDGGEADGISGTGYISLVHALLRAGLLDVDGRFIQSPSSPLAARMARSIVSHRGEPCLPLARGLYLAARDIEEILKVKAAFSLAFERLLATAQMPSHALSGIHLAGALGQHALPADLEGLGFIPPGSGGRTRAVGNTSLRGAELLLTSPPLRDTLNTWREGCTVVDLTAAPDFSAAFLRHMHFHF,not soluble
8,MGSDKIHHHHHHMQQVISDIMTFRGSHFELGVKTGKWLQQTPLLKNREKEWKKRVPRFDIDVNETYQIFQTYAPQIWEELMGLQSILKMPTRQIILNFGHYRFTDLKESGCTVFQGKDFMVRNYDYHPATYDGRYLLYQPTDSGLAQIGPVSRVTGRMDGMNESGLTMGYNFMHRKKPANGFVCYMIGRLILENCRNVTEAIQLLKEIPHRSSFSYILMDKSLNHAIVEVTPRSIDVRYDNICTNHFEILTHENRNYTKESKERLARTISQTNDNLDMTTAFKLFNNPQYEIYSKLFKSWSGTIHTSMYQPETLTAYFTLGENAPPEIIDFKSWLDGQDLNITHFTGNIDTDLTFANK,not soluble
9,MGSDKIHHHHHHMQSALWVSKTGLAAQDTKMTTIANNLANVNTTGFKRDRVAFNDLFYQVQRQPGGQVDELNQLPSGLQLGTGTRVAGTQKVFTTGDVHNTSQQLDLAIEGNGFFQVEEPNGDLAYTRDGQFYRSSEGMMVTSQGLPLVPNIVIPEDSTNITIATDGIVMATIAGDAEPQELGQITLINFTNPAGLEARGNNLYRETAASGVAVEGVAGDQALGGLRQGSLEGSNVNVVEEMVEMISTQRAYEMNAKVVSASDDMLKFLNQSV,not soluble
10,MGSDKIHHHHHHMQTDKIFYSLFQAFTSIFFAIIGEADINPSTYEFVSVELKETAFRIDGVFKPVNETTEEPLYFVEVQFQLDPKFYRRFFAEIFLYLRQNPSVNFWRAVVIYPQRIIEPDDQQPYRSILDSSQIQRIYLDELGTANENSLQLAIMQLIIASEAIAIDQGRQLIIQARQELTDEANKKQIVELIETILLYKFTNLSREEVAAMLGIDDEFKKTRMYQSIKEDGLEEGRQEGRQQGIQEGRQEGRLQAKLEAIPRLLALGLSVEQIASALDLSIEQVQQVTGN,not soluble
11,MGSDKIHHHHHHMQTFLKGKRVGYWLSEKKIKKLNFQAFAELCRKRGMEVVQLNLSRPIEEQGPLDVIIHKLTDVILEADQNDSQSLELVHRFQEYIDAHPETIVLDPLPAIRTLLDRSKSYELIRKIEAYMEDDRICSPPFMELTSLCGDDTMRLLEKNGLTFPFICKTRVAHGTNSHEMAIVFNQEGLNAIQPPCVVQNFINHNAVLYKVFVVGESYTVVQRPSLKNFSAGTSDRESIFFNSHNVSKPESSSVLTELDKIEGVFERPSDEVIRELSRALRQALGVSLFGIDIIINNQTGQHAVIDINAFPGYEGVSEFFTDLLNHIATVLQGQSTAMAATGDVAL,soluble
12,MGSDKIHHHHHHMQVIIVEDEKTLRFSPLADLKPVYDLVTGCFSLRQRFVEALGARQKLTWHLRRHIAPWFAEANPGSVVNRVLEDEVLLVNGRLICDAAVTQFIDARKIAPGEALIQNGNLLFCRTTAEPLHVLETVFPDTIDGMVLAGAFSCVEVSGFRLIENLWDPVAMHPAMMREDGAALALGRIEGEVHPSAILVNPSAITVEKGAEVKAGAVLDASDGFIYIGAGAVVEPVALLMENVYIAPGARVKSGARIYSNVCIGGGAKAGGEIEDSIMEPFSNKQHDGFLGHSYISSWCNLGAGTDTSDLKNNYSPVSIETAHGKMATGQQFLGLLMGEHSKCSIGTRFNTGTVVGISSNIFGNGMPAKYVPSFSWGDGNPGTARYEADKAVETARKVMARRKVEMSAAYEAMFRAVAGE,not soluble
13,MGSDKIHHHHHHMRAKELQDWFPEARISDQPVEKEGYLTLPLASQQWILLEEAGLSEREKQLVALLTQQEQARSLNPWYSYLVEGKGQAPQVFKKIQLVYCHLSYFQQENLASWLDMMRTLFPNCQTVLQVGAQDYVFVLQQDKYTSVRDILSDTIEAVEYDFGLRLSIMLGQVWSQTGHQALSDLIKAERDLFKTWWRQGHQGVHTFSQLYLWSMGERLVDLKPIKECLHQMILDQDQIQEIILSLWENSAVLTKTAQQLYLHRNSLQYKIDKWEELTGLQLKELTDLTLCYQLILGSLSTIVGL,not soluble
